Source: publication PMC8102515
“And” between values parts separate entries of the source, which are not always exact repeats. Identical values can stand only once. Values belong to the binder of their own block, whether it stands above or below them.

How the values were obtained:
[1] = biological target: T1, human peroxiredoxin 6 (human), P30041; test: dynamic light scattering; hPrdx6 1.0 mg/ml, pH 8.0; fixed angle of 90°, laser 689 nm; settings: remark: other sources report otherwise
T1 chain: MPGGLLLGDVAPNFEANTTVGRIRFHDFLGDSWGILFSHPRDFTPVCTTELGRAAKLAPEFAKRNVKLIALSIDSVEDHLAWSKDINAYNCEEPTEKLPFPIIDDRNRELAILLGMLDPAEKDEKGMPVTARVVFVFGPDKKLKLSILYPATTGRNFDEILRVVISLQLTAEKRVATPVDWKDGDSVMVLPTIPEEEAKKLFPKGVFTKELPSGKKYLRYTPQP

[2] = biological target: T1, human peroxiredoxin 6 (human), P30041; test: dynamic light scattering; hPrdx6 1.0 mg/ml, pH 3.0; fixed angle of 90°, laser 689 nm; settings: remark: other sources report otherwise
[3] = biological target: T1, human peroxiredoxin 6 (human), P30041; test: dynamic light scattering; hPrdx6 1.0 mg/ml, pH 6.0; fixed angle of 90°, laser 689 nm; settings: remark: other sources report otherwise
[4] = biological target: T1, human peroxiredoxin 6 (human), P30041; test: dynamic light scattering; hPrdx6 1.0 mg/ml, pH 9.0; fixed angle of 90°, laser 689 nm; settings: remark: other sources report otherwise
[5] = biological target: T1, human peroxiredoxin 6 (human), P30041; test: dynamic light scattering; hPrdx6 1.0 mg/ml, pH 10.0; fixed angle of 90°, laser 689 nm; settings: remark: other sources report otherwise
[6] = biological target: T1, human peroxiredoxin 6 (human), P30041; test: dynamic light scattering; hPrdx6 1.0 mg/ml, pH 2.0; fixed angle of 90°, laser 689 nm; two peaks; settings: remark: other sources report otherwise
[7] = biological target: T1, human peroxiredoxin 6 (human), P30041; test: dynamic light scattering; hPrdx6 1.0 mg/ml, pH 5.0; fixed angle of 90°, laser 689 nm; two peaks; settings: remark: other sources report otherwise
[8] = biological target: T1, human peroxiredoxin 6 (human), P30041; test: dynamic light scattering; hPrdx6 1.0 mg/ml, pH 4.0; fixed angle of 90°, laser 689 nm; oligomer told from the hydrodynamic diameter; settings: remark: other sources report otherwise
[9] = biological target: T1, human peroxiredoxin 6 (human), P30041; test: dynamic light scattering; hPrdx6 1.0 mg/ml, pH 7.0; fixed angle of 90°, laser 689 nm; oligomer told from the hydrodynamic diameter; settings: remark: other sources report otherwise
P30041 = test: dynamic light scattering; hPrdx6 1.0 mg/ml, pH 2.0; fixed angle of 90°, laser 689 nm; two peaks; settings: other: dynamic light scattering

stoichiometry N [1]: 2
volume fraction of the dimer peak (Hd 6.31 nm) [1]: 100%
stoichiometry N [2]: 4
volume fraction of the tetramer peak (Hd 12.2 nm) [2]: 99.2%
stoichiometry N [3]: 2
volume fraction of the dimer peak (Hd 8.12 nm) [3]: 100%
stoichiometry N [4]: 2
volume fraction of the dimer peak (Hd 6.4 nm) [4]: 100%
stoichiometry N [5]: 2
volume fraction of the dimer peak (Hd 6.3 nm) [5]: 100%
stoichiometry N [6]: 2
volume fraction of the larger peak (Hd 14.17 nm; the text's dimer) [6]: 30.2%
stoichiometry N [7]: 2 and 4
volume fraction of the dimer peak (Hd 6.39 nm) [7]: 29.8%
volume fraction of the tetramer peak (Hd 13.44 nm) [7]: 70.2%
stoichiometry N [8]: 4
volume fraction of the tetramer peak (Hd 13.75 nm) [8]: 99.6%
stoichiometry N [9]: 2
volume fraction of the dimer peak (Hd 7.1 nm) [9]: 100%
B1: human peroxiredoxin 6, P30041 1-224 (enzyme)
chain: T1 chain

B2: human peroxiredoxin 6 (protein)
chain: T1 chain
volume fraction of the monomer peak (Hd 3.7 nm) (P30041): 69.8%
